{
  "source": "the supplement of paper PMC12636428",
  "data": [
    {"test_system": "Saccharomyces cerevisiae", "assay": "transcriptional activation domain activity (GFP:mCherry ratio, weighted mean of sorted bins, harmonized to initial dataset scale) (arbitrary fluorescence ratio units); higher = stronger transcriptional activation", "settings": "beta-estradiol 1 µM; induction time 4 h", "outline": "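Barcoded protein tiles fused to an estradiol-inducible synthetic transcription factor were integrated at the yeast URA3 locus, in diploids carrying a GFP reporter. Cultures were diluted 1:5 into SC with 1 uM beta-estradiol, held 4 hours at 30 °C, sorted into 8 bins by GFP:mCherry ratio, and barcodes sequenced. Tiles under 50 reads were discarded. Activation activity is the read-weighted mean of bin median fluorescence, averaged across barcodes, then linearly mapped onto the initial dataset scale.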", "values": [
      {"sequence": "KAAPEDKEPEPVAVSYKVNDTVMAKWVSGDKGYYPARITSVTGSSTDPIYVVK", "transcriptional activation domain activity": 19800},
      {"sequence": "KAAVPKTKAAPKAKAVKAPKEKKAAAPKAKAAAKPKAAPKAKKAAAPKAAPAV", "transcriptional activation domain activity": 29000},
      {"sequence": "KADDEKPKKAARGAKAKKEEDEDEEADEEQEEPKKPARKPRAKAEPKKAPAKS", "transcriptional activation domain activity": 23100},
      {"sequence": "KADDGGGDEAEKPKKATSKKPKKENDDAMDVDEEAQERPKPKPRPKPKPKAKE", "transcriptional activation domain activity": 22000},
      {"sequence": "KADEDAQTGEKRKAEEPAADTNGEKSKDEEPASKKAKTDEEEKTAGKAKKPGR", "transcriptional activation domain activity": 24000},
      {"sequence": "KADEPAVEENGAKEDDSAKKQKTNGETETEKKGKGRGRPKKADGEKKAPAKKR", "transcriptional activation domain activity": 21400},
      {"sequence": "KAEAEAEAQPIAAAKTPRTRKAAAKPKAAAPSPTPAIPKTQAPTASAPAAPLP", "transcriptional activation domain activity": 18300},
      {"sequence": "KAEPKKEAAKGPRNVSGVTVDDKKEGKGKAAKKGDRVEMRYIGKLKSGKVFDS", "transcriptional activation domain activity": 36900},
      {"sequence": "KAETTAAKDAGAEPEAKPMRGGGREKKRDAEEAVKKEAVKEKPSKGSTKPASK", "transcriptional activation domain activity": "< 6570"},
      {"sequence": "KAFRLVHGILQRSHPRTLDRLFSSMLWLLHNGLTEVALLLRDYIRSLSIRLTS", "transcriptional activation domain activity": 53000},
      {"sequence": "KAGCGYILGHINIFQPINWIFVVSAKVFPVDYVLFLLLVFFLFSASVVGVATV", "transcriptional activation domain activity": 32300},
      {"sequence": "KAGEAKTATSKGAGDEEEGTQKKKGTSSRKKATGTMGNGEVEIGNAGSSEKKK", "transcriptional activation domain activity": 36200},
      {"sequence": "KAGGTGAKQEKEPQGEGRETEGNQAKANRRTKGGTARGEGAAGGRRRRKGEES", "transcriptional activation domain activity": 35000},
      {"sequence": "KAGKKKYVESVNGRRREVLVIVGKDGKTKRKTRWLDPESAATETGVPWGLEVP", "transcriptional activation domain activity": 28800},
      {"sequence": "KAKAGADGDAAPKKKKAASKKDSNGSDAEDSDGEAKPKPKLKKKAAAAGKAKA", "transcriptional activation domain activity": 29400},
      {"sequence": "KALLLLLRIAHLQFNKIPLTLIFDQFLNVAILCDMYSKGNEKYLLISWVFHRE", "transcriptional activation domain activity": 28800},
      {"sequence": "KALVDAIITSHNIIIVHNQLIWFPNIVFLMSLIPLHIAAMNLWMALDMLFCFC", "transcriptional activation domain activity": 52900},
      {"sequence": "KAMGLLDSARIVSWHVSYSLVHLPSWISFAIIYKVRLFVKTNILILLVVHVLF", "transcriptional activation domain activity": 41600},
      {"sequence": "KANSKAKLSKKDESSDESESDSEDEKPAPKANGKQVCCAVPLAIFFIALLTKY", "transcriptional activation domain activity": 57400},
      {"sequence": "KAPTAPRKAGIAAKAGEKEAAAGAAAKVAEVTEAAARRGRGRPKKAQEELTAS", "transcriptional activation domain activity": 50500},
      {"sequence": "KAQDDKEADDSPKKKPAKRSRKKAAADDGDDDEEEAQPAKKKAKGGRKSKAAA", "transcriptional activation domain activity": 39400},
      {"sequence": "KARKRTRERKKEKEGRARTKGEGDRYEGRKFEISGTVEVKRERCEGTRRTKPK", "transcriptional activation domain activity": 9070},
      {"sequence": "KARPRQEGGQRQESGKKRKRDEDEGGDGQEGGEGGRKRRRKRKGAGGADDGVQ", "transcriptional activation domain activity": 33400},
      {"sequence": "KARQDKEPAMTQKDLATKINEKPSVINDYESGRAIPNQQVLGKLERALGVKLR", "transcriptional activation domain activity": 40000},
      {"sequence": "KARQEKQPPMTQKDLATKVNEKPSVINDYESGRAVPNQQVLSKLERALQVKLR", "transcriptional activation domain activity": 22500},
      {"sequence": "KASARKKRAPKKSDEGKRGEKEGNRSANGSNDEDDDRDSSSSSSSNDEATSRS", "transcriptional activation domain activity": 11200},
      {"sequence": "KASGSARESVDGEEDKEEAKEKNKENVKVEEKLDADEGEKESKVKAEAAKEPG", "transcriptional activation domain activity": 20300},
      {"sequence": "KASKSKKRKHHHHKSAVSSPEASDADTASQSSKRSKKSKRRHADADARAAANG", "transcriptional activation domain activity": 36700},
      {"sequence": "KASLGTGDAGKATTKSASAAVKSKAAAKSAKASDSKGGGEDEEEDGGAPKKKK", "transcriptional activation domain activity": 18900},
      {"sequence": "KATEYCLYFFGLGPALFKSLLPDKYWQHYCMLVHAVRILVQRRITQTQMLEAY", "transcriptional activation domain activity": 49300},
      {"sequence": "KATYHAMLHICRDIAKETLFFFHLVQEHPDDLPLVQSVLILLISCISRVVCTL", "transcriptional activation domain activity": 55000},
      {"sequence": "KAVAALRRQTGQEAVEVEVAPIRQKRRETVGATVTTARPVAGSQTGPALTQVT", "transcriptional activation domain activity": 14800},
      {"sequence": "KAVFKALPILVVASVGCASTNLLIRTVIIWRKEHLVISVLLLLYVGHWTILFV", "transcriptional activation domain activity": 32100},
      {"sequence": "KCCVHVHQVYPYFFVEYFGKMRLRSGQLSALTFGAELQYTRVLIHVGVHFYGF", "transcriptional activation domain activity": 47400},
      {"sequence": "KCLRLAIHIPLYPLFRTALVLRVQPSNAPLIRSVKDFLIYYLHDLQRFFILSP", "transcriptional activation domain activity": 70000},
      {"sequence": "KCSKVEPWVINVAAVFPSVFLLGFVENFFWFRRMMLGKGCLRFGTVCWALLFI", "transcriptional activation domain activity": 65800},
      {"sequence": "KDATGDDAARARGGDKGGEREKAGGKGGRRGPKEKEKGKQKAKESKGAAGFAE", "transcriptional activation domain activity": 55600},
      {"sequence": "KDDEKKDRHRSRRDRGDRDKEDERRRRKRRSRSRSNHRHGHERRRDRSRSREG", "transcriptional activation domain activity": 17100},
      {"sequence": "KDDRDDRDRRGGDDRREDREERRGGEDRGEDRGGEGRRDSRQEGGANREPSPS", "transcriptional activation domain activity": 23700},
      {"sequence": "KDEEEREGEKRKEGKEESDTAVVKHRRRYRSRSKDRKRDGSRERRHRERSREG", "transcriptional activation domain activity": 30600},
      {"sequence": "KDESSSSRRRRGGRSEKEKRERTGDEGDSSSRHRSGRDREGDEEADDDERGSS", "transcriptional activation domain activity": 37500},
      {"sequence": "KDEVMKIKPVQKQTTAGQRTRFKAVVIVGDSNGHVGLGIKSAKEVATAIRAAI", "transcriptional activation domain activity": 55100},
      {"sequence": "KDEVMKIMPVQKQTRAGQRTRFKAFVVIGDSDGHVGLGVKCAKEVATAIRGAI", "transcriptional activation domain activity": 61200},
      {"sequence": "KDGKNEVIVDMQRVRERKREIVNSFRGGSEKRVADAGVTVLMGSASFVDSKTV", "transcriptional activation domain activity": 34900},
      {"sequence": "KDGKQRRTREAAGSGHARRRRRGDRERRKGQPRAGRPGAKAKGKAGGTGAKQE", "transcriptional activation domain activity": 15700},
      {"sequence": "KDHIGMKCVVAIVCLLDTMHQIFITHALYIYLIKGFANPLILTRLLWTFLIQL", "transcriptional activation domain activity": 56400},
      {"sequence": "KDKNKEKERGKHKHRRRERDGDGDGDEEDGRSSKKHKKERGQKRSEKEGGGED", "transcriptional activation domain activity": 42100},
      {"sequence": "KDLKDGTRAPGDESERIVVEELDMERVALDRTLGRLWRSWKKRIRSPTEPSFG", "transcriptional activation domain activity": 34300},
      {"sequence": "KDLNVVEGWEHQGVLRAAANTVKSVRMKESSTGGSQEKVYLKLVESTGHTLQG", "transcriptional activation domain activity": 21200},
      {"sequence": "KDNATTAAVAAASSEKDDEKKAKEENKPDDKKTEEKKAEEKKSDDTAKDDASK", "transcriptional activation domain activity": 34300},
      {"sequence": "KDPWHIKALVAFVWILDVAHTILISCFVYTLTIVYYGRAQELLKFICLYILIL", "transcriptional activation domain activity": 45100},
      {"sequence": "KDQIMYYIHLVIMISTIIQALVQHMIVVNTLPTYFCHPINVFSNFFWHVQFTL", "transcriptional activation domain activity": 39300},
      {"sequence": "KDRKEKAEEKSGEEDRGKREDGAAEGEEREEVKRSAARKPKTVPAAASKKRPK", "transcriptional activation domain activity": 34600},
      {"sequence": "KDSDDESEDSDAKSKKRKKRKRVVESDEGSGSEAESKKRKKKRKAEDSDVSGS", "transcriptional activation domain activity": 22600},
      {"sequence": "KDYSVEAGIRFLQFIIHKCITVDIGVLCDIIDKVYGSLVIINCLRRYRNLHNL", "transcriptional activation domain activity": 48500},
      {"sequence": "KEAKSKSKAAHDNDAKRKTTATKPKRTSARNGKAPVKSKPKKGGGNAEPSAKK", "transcriptional activation domain activity": 10300},
      {"sequence": "KEDAGEAEAEGSGDKAEEAIAEKPKRGRKKAEPKEKAEPAAKPAVGRKKSVAE", "transcriptional activation domain activity": 45700},
      {"sequence": "KEDILLTLYENSTFGGLWSKLSDCLTVIRQRGNMLNIATILLPLIEALMVVCK", "transcriptional activation domain activity": 54700},
      {"sequence": "KEEAESEAEASAPKGKKGTVKKPAAAAKAKDVDEPKAKRGRPKKTVAKDEVEN", "transcriptional activation domain activity": "< 6570"},
      {"sequence": "KEEAGEEAEEASPAPSEQKEEAPPSGQKPQANTGKKKDQASPAKKTGATAAAK", "transcriptional activation domain activity": 13700},
      {"sequence": "KEEAPAEEQEKEEKKEKVPLSDARKGRARGPQRRAPAAAKAAAAAAAAPAPAV", "transcriptional activation domain activity": 34400}
    ]}
  ]
}
